Data from paper PMC9482650, “Quantitative fragmentomics allow affinity mapping of interactomes” (Nature Communications, 2022).

Assays:
Experiment in all cases: holdup assay
Set-up in all cases: key: below the threshold = too weak to quantify, mostly under pKd 3.1 to 4
[1] = biological target: FRMPD2_2, Q68DX3
[2] = biological target: T1, APBA3_1, O96018
T1 sequence (O96018 389-490, limits assumed, looked up): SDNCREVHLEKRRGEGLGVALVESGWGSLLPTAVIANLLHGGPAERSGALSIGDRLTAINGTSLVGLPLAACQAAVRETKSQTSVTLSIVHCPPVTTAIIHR

[3] = biological target: TJP1_2, Q07157
Chain of TJP1_2, Q07157 (Q07157 181-274): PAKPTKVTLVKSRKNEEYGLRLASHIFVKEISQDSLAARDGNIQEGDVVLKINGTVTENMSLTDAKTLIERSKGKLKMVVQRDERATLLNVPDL

[4] = biological target: LAP2, Q96RT1
Chain of LAP2, Q96RT1 (Q96RT1 other isoform, or with tags, fused parts or gaps): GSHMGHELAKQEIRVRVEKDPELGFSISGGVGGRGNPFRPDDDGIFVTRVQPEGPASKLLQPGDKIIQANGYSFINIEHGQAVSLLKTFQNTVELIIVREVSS

[5] = biological target: T2, MPDZ_12, O75970
T2 sequence (O75970 1857-1958, limits assumed, looked up): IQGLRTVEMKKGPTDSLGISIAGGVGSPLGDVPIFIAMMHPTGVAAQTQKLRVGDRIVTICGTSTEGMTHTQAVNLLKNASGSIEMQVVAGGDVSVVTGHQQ

[6] = biological target: T3, DLG3_2, Q92796
T3 sequence (Q92796 221-321, limits assumed, looked up): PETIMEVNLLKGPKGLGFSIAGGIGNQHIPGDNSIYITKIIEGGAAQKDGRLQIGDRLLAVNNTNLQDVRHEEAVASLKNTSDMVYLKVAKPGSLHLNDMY

[7] = biological target: FRMPD2_3, Q68DX3
Chain of FRMPD2_3, Q68DX3 (Q68DX3 1073-1166): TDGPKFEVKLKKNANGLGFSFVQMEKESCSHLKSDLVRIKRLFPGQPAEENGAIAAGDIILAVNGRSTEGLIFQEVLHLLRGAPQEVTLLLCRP

[8] = biological target: T4, GRIP1_4, Q9Y3R0
T4 sequence (Q9Y3R0 467-571, limits assumed, looked up): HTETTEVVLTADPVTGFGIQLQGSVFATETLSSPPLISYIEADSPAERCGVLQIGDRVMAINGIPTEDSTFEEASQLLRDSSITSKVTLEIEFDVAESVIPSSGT

[9] = biological target: CASK, O14936
Chain of CASK, O14936 (O14936 487-570): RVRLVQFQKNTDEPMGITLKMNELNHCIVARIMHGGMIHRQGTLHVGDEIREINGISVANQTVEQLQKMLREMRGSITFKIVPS

[10] = biological target: T5, DFNB31_1, Q9P202
T5 sequence (Q9P202 135-233, limits assumed, looked up): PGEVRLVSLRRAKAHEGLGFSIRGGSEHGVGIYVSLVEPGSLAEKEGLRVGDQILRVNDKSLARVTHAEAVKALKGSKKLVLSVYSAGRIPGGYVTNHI

[11] = biological target: T6, PTPN13_1, Q12923
T6 sequence (Q12923 1088-1188, limits assumed, looked up): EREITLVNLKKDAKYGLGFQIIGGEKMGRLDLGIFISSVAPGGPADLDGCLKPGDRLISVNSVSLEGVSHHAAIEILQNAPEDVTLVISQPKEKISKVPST

[12] = biological target: T7, SHANK1, Q9Y566
T7 sequence (Q9Y566 658-767, limits assumed, looked up): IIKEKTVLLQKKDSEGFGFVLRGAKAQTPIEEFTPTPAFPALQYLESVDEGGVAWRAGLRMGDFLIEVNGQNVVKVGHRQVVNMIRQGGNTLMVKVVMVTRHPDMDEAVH

[13] = biological target: NHERF2_2, Q15599
Chain of NHERF2_2, Q15599 (Q15599 142-238): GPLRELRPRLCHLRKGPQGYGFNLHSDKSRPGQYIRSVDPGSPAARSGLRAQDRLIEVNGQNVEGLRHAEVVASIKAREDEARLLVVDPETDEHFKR

[14] = biological target: T8, MPP6, Q9NZW5
T8 sequence (Q9NZW5 125-219, limits assumed, looked up): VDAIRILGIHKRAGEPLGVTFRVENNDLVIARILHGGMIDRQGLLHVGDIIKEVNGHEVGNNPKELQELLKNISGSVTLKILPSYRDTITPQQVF

[15] = biological target: T9, GRIP1_3, Q9Y3R0
T9 sequence (Q9Y3R0 247-346, limits assumed, looked up): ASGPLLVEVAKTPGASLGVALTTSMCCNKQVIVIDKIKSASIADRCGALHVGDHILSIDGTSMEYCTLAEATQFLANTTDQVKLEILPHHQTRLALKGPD

[16] = biological target: T10, PDZD7_3, Q9H5P4; conditions: plain residues with an end cap or a label only (N-terminal biotin on a linker: ttds)
T10 sequence (Q9H5P4 857-944, limits assumed, looked up): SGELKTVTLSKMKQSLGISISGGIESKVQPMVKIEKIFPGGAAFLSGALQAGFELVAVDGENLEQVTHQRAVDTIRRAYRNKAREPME

[17] = biological target: DLG1_2, Q12959
Chain of DLG1_2, Q12959 (Q12959 314-412): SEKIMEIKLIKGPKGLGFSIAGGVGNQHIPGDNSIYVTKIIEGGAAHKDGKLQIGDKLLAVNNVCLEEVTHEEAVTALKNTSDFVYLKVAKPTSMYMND

[18] = biological target: Inadl_4, Q8NI35
Chain of Inadl_4, Q8NI35 (Q8NI35 547-651): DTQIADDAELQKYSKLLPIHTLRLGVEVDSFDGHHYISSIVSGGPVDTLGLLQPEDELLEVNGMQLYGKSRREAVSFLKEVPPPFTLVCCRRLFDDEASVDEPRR

[19] = biological target: MAGI2_4, Q86UL8
Chain of MAGI2_4, Q86UL8 (Q86UL8 772-865): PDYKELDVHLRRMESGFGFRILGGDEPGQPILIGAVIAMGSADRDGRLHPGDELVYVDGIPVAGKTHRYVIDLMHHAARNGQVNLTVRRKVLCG

[20] = biological target: Inadl_6, Q8NI35
Chain of Inadl_6, Q8NI35 (Q8NI35 1058-1167): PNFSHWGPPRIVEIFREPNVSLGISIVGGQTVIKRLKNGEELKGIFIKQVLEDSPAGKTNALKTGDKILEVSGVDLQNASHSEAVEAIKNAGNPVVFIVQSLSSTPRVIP

[21] = biological target: T11, PCLO, Q9Y6V0
T11 sequence (Q9Y6V0 4491-4600, limits assumed, looked up): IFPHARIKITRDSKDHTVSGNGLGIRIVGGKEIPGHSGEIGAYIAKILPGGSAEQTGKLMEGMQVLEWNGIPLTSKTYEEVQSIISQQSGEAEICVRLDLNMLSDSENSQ

[22] = biological target: GIPC2, Q8TF65
Chain of GIPC2, Q8TF65 (Q8TF65 112-203): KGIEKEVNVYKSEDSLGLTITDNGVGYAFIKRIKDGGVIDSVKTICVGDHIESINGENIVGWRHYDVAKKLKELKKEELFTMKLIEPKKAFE

[23] = biological target: T12, APBA1_2, Q02410
T12 sequence (Q02410 742-832, limits assumed, looked up): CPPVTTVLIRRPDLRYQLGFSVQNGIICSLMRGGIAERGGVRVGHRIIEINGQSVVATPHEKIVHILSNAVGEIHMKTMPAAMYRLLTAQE

[24] = biological target: T13, PARD3B_1, Q8TEW8
T13 sequence (Q8TEW8 196-299, limits assumed, looked up): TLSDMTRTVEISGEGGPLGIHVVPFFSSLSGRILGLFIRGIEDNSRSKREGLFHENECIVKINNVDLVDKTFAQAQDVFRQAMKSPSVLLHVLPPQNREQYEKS

[25] = plain residues with an end cap or a label only (N-terminal biotin on a linker: ttds)
[26] = plain residues with an end cap or a label only (N-terminal biotin on a linker: ahx)

Measured: pKd

Chain of FRMPD2_2, Q68DX3 (Q68DX3 944-1038): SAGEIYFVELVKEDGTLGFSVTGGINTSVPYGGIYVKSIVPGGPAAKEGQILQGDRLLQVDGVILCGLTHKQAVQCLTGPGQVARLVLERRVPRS

NDPAWDETNL [ARHGEF7, Q14155;Q14155-1]
4.07: [10]; [25]
4.09: [20]; [25]
4.81: [13]; [25]
4.46: [4]; [25]
4.79: [12]; [25]
below the threshold: [1]; [25] | [2]; [25] | [3]; [25] | [5]; [25] | [6]; [25] | [7]; [25] | [8]; [25] | [9]; [25] | [11]; [25] | [14]; [25] | [15]; [25] | [17]; [25] | [18]; [25] | [19]; [25] | [21]; [25]
4.24: [16]

PSASCAVTAA [PDLIM4, P50479;P50479-2]
below the threshold: [1]; [26] | [2]; [26] | [3]; [26] | [4]; [26] | [5]; [26] | [6]; [26] | [7]; [26] | [8]; [26] | [9]; [26] | [10]; [26] | [11]; [26] | [12]; [26] | [13]; [26] | [14]; [26] | [22]; [26] | [15]; [26] | [17]; [26] | [18]; [26] | [19]; [26] | [23]; [26] | [20]; [26] | [21]; [26] | [24]; [26]

PRVKPQRSKV [PPP1R13L, Q8WUF5]
3.67: [16]
3.54: [23]; [25]
3.64: [12]; [25]
below the threshold: [1]; [25] | [2]; [25] | [3]; [25] | [4]; [25] | [5]; [25] | [7]; [25] | [8]; [25] | [9]; [25] | [10]; [25] | [11]; [25] | [13]; [25] | [14]; [25] | [22]; [25] | [15]; [25] | [17]; [25] | [18]; [25] | [19]; [25] | [20]; [25] | [21]; [25] | [24]; [25]
3.73: [6]; [25]
